Results on eight molecules are retold here after patent US20230131727A1 (Janssen / Centocor, published 2023).

In test [1] the target is T1, human PSMA (prostate-specific membrane antigen) on cells (human, UniProt Q04609 1-750). The experiment in a line: cell-based or functional assay.
Test [2] has as its target T1, human PSMA (prostate-specific membrane …). The test can be described thus: cell-based or functional assay. This is another data set of the same source.

T1 sequence (Q04609 whole entry): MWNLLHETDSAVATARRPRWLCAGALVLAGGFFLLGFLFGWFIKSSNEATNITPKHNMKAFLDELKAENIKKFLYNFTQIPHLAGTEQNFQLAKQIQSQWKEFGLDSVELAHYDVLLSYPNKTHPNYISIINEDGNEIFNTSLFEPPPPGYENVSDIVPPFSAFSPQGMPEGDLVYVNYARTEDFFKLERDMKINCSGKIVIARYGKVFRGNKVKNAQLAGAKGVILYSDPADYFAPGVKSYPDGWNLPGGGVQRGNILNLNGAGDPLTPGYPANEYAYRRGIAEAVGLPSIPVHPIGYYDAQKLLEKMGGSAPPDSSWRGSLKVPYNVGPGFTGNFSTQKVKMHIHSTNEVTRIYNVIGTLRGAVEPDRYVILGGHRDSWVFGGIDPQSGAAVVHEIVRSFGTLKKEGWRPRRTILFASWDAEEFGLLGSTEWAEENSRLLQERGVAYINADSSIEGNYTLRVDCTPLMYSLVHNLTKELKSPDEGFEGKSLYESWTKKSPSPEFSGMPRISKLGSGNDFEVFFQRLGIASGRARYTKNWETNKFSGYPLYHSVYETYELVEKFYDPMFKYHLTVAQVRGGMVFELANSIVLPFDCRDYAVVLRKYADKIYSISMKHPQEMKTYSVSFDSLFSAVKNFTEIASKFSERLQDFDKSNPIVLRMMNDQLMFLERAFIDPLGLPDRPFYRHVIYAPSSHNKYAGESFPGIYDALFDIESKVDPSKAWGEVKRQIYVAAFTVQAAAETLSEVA

B1: PSMB1154 conjugated to maleimide-PEG4-vcPAB-MMAF (ADC) (antibody, human IgG1, lambda, V domains shown)
VH: EVQLVESGGGEVQPGRSLRLTCAVSGFTLSRYGMHWVRQAPGKGLEWAALISYDGSNRYYADSVKGRFTISRDNSKNTVFLQMNSLRAEDTAVYYCARERESSGWFEGYFDYWGQGTTVTVSS
VL: QLVLTQPPSVSVAPGQTARITCGGNNIGSKSVHWYQQKPGQAPVLVVYDNSDRPSGIPERFSGSNSGNTATLTISRVEVGDEADYYCQVWDSSSDHVVFGGGTKLTVLG
modifications: reduced cysteines carry maleimide-PEG4-vcPAB-MMAF or N-ethyl maleimide; sites not given
For B1, the “C4-2B IC50” value in test [1] amounted to 0.03 nM. Besides, the “MMAF IC25 (nM), 22RV1 cells” value in test [2] came out at 0.1 nM.

B2: PSMB1154 conjugated to MC-GGFG-DX8951 (ADC) (antibody, human IgG1, lambda, DAR 8, V domains shown)
VH: EVQLVESGGGEVQPGRSLRLTCAVSGFTLSRYGMHWVRQAPGKGLEWAALISYDGSNRYYADSVKGRFTISRDNSKNTVFLQMNSLRAEDTAVYYCARERESSGWFEGYFDYWGQGTTVTVSS
VL: QLVLTQPPSVSVAPGQTARITCGGNNIGSKSVHWYQQKPGQAPVLVVYDNSDRPSGIPERFSGSNSGNTATLTISRVEVGDEADYYCQVWDSSSDHVVFGGGTKLTVLG
modifications: reduced cysteines carry MC-GGFG-DX8951; DAR 8.0
Regarding B2, the “DX8951 IC50 (nM), 22RV1 cells” value in test [2] was determined as 0.8 nM.

B3: PSMB1183 conjugated to maleimide-PEG4-vcPAB-MMAF (ADC) (antibody, human IgG1, lambda, V domains shown)
VH: QVQLQESGPGLVKSSETLSLTCTVSGGSISSYYWNWIRQPAGKGLEWIGRIYSSGNTDYNPSLKSRVTMSVDTSKNQFSLKLISVTAADTAVYYCARGRGANVGLFDYWGQGTLVTVSS
VL: QSALTQPPSVSGAPGQRVTISCTGSNSNIGANYDVHWYQHLPGTAPKLLIYGNINRPLGVPDRFSGSRSGTSASLAITGLQAEDEADYYCQSYDFSLSGSVFGVGTKLTVLG
modifications: reduced cysteines carry maleimide-PEG4-vcPAB-MMAF or N-ethyl maleimide; sites not given
B3: the “C4-2B IC50” value in test [1] was 0.03 nM.

B4: PSMB1183 conjugated to MC-GGFG-DX8951 (ADC) (antibody, human IgG1, lambda, DAR 8, V domains shown)
VH: QVQLQESGPGLVKSSETLSLTCTVSGGSISSYYWNWIRQPAGKGLEWIGRIYSSGNTDYNPSLKSRVTMSVDTSKNQFSLKLISVTAADTAVYYCARGRGANVGLFDYWGQGTLVTVSS
VL: QSALTQPPSVSGAPGQRVTISCTGSNSNIGANYDVHWYQHLPGTAPKLLIYGNINRPLGVPDRFSGSRSGTSASLAITGLQAEDEADYYCQSYDFSLSGSVFGVGTKLTVLG
modifications: reduced cysteines carry MC-GGFG-DX8951; DAR 8.0
B4: in test [2], the “DX8951 IC50 (nM), 22RV1 cells” value came out at 0.7 nM.

B5: PSMB1156 conjugated to maleimide-PEG4-vcPAB-MMAF (ADC) (antibody, human IgG1, lambda, V domains shown)
VH: EVQLVESGGGVVQPGRSLRLSCAASGFTFTSYGMHWVRQAPGKGLEWVAVISYDGSNKYYADSVKGRFTISRDNSKNTLYLQMNSLRAEDTAVYYCAREHYDSSGYYHGYYGMDVWGQGTTVTVSS
VL: not shown
modifications: reduced cysteines carry maleimide-PEG4-vcPAB-MMAF or N-ethyl maleimide; sites not given
Turning to B5, the “C4-2B IC50” value in test [1] was 0.04 nM. In test [2], the “MMAF IC25 (nM), 22RV1 cells” value was 0.9 nM.

B6: PSMB1156 conjugated to MC-GGFG-DX8951 (ADC) (antibody, human IgG1, lambda, DAR 8, V domains shown)
VH: EVQLVESGGGVVQPGRSLRLSCAASGFTFTSYGMHWVRQAPGKGLEWVAVISYDGSNKYYADSVKGRFTISRDNSKNTLYLQMNSLRAEDTAVYYCAREHYDSSGYYHGYYGMDVWGQGTTVTVSS
VL: not shown
modifications: reduced cysteines carry MC-GGFG-DX8951; DAR 8.0
For B6, in test [2], the “DX8951 IC50 (nM), 22RV1 cells” value was found to be 1.4 nM.

B7: PSMB1157 conjugated to maleimide-PEG4-vcPAB-MMAF (ADC) (antibody, human IgG1, lambda, V domains shown)
VH: EVQLVESGGGVVQPGRSLRLSCAASVRTFSGYGMHWVRQVPGKGLEWVAVISYDGSNRYYADSVKGRFTISRDNSKNTLYLQMNSLRTEDTAVYYCARDGNWGSLDLYFDLWGRGTLVTVSS
VL: QSVLTQPPSVSGAPGQRVTISCTGSSSNIGADYDVHWYQQLPGTAPKLLIYVNNNRPSGVPDRFSGSRSGTSASLAITGLQADDEADYYCQSYDNTLSGVVFGGGTKLTVLG
modifications: reduced cysteines carry maleimide-PEG4-vcPAB-MMAF or N-ethyl maleimide; sites not given
In the case of B7, in test [1], the “C4-2B IC50” value came out at 0.03 nM. The “MMAF IC25 (nM), 22RV1 cells” value in test [2] came out at 0.4 nM.

B8: PSMB1157 conjugated to MC-GGFG-DX8951 (ADC) (antibody, human IgG1, lambda, DAR 8, V domains shown)
VH: EVQLVESGGGVVQPGRSLRLSCAASVRTFSGYGMHWVRQVPGKGLEWVAVISYDGSNRYYADSVKGRFTISRDNSKNTLYLQMNSLRTEDTAVYYCARDGNWGSLDLYFDLWGRGTLVTVSS
VL: QSVLTQPPSVSGAPGQRVTISCTGSSSNIGADYDVHWYQQLPGTAPKLLIYVNNNRPSGVPDRFSGSRSGTSASLAITGLQADDEADYYCQSYDNTLSGVVFGGGTKLTVLG
modifications: reduced cysteines carry MC-GGFG-DX8951; DAR 8.0
Consider B8, for which the “DX8951 IC50 (nM), 22RV1 cells” value in test [2] is 2.2 nM.
